Target: T1, Recombinant human GST-Syt1-C2AB domain (human, UniProt P21579 81-422)
T1 construct: human synaptotagmin 1, cytoplasmic C2AB domains (C2A and C2B); Construct was a gift (Dr. Namgi Lee); also called C2AB fusion protein; GST-fused cytoplasmic (C2AB) domains of Syt1; not shown: GST, N-terminal, kept
Assay: pull-down; GST fusion protein on beads incubated with cleared extracts of transfected HEK293T cells (1 mg at 1 mg/ml) for 4 h at 4 °C; lysis buffer 20 mM Tris-HCl pH 8.0, 137 mM NaCl, 2 mM EDTA, 1% Triton X-100; bound proteins detected by immunoblot for HA
Settings: one partner purified

T1 sequence (P21579 81-422): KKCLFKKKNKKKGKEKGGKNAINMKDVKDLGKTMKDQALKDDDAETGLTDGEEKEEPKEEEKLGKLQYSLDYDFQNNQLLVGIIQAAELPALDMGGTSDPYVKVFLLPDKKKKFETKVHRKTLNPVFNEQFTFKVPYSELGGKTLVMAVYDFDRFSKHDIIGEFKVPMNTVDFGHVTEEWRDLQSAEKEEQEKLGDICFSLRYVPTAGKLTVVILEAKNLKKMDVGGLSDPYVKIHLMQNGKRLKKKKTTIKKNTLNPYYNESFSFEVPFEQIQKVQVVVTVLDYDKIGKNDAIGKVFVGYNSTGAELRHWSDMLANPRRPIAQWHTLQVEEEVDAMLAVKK

B1: HA-SGIP1α-mut (W771A/K781A) (natural protein, mouse, UniProt Q8VD37-6 1-854, looked up)
chain: MMEGLKKRTRKAFGIRKKEKDTDSTGSPDRDGMQGKKKAQKTQLLLTSCFWLRALSLTLSQQPSPHEPPYHSKAECAREGGKKASKKSNGAPNGFYAEIDWERYNSPELDEEGYSIRPEEPGSTKGKHFYSSSESEEEEESHKKFNIKIKPLQSKDVLKNAATVDELKASIGNIALSPSPVRKSPRRSPGAIKRNLSSEEVARPRRSTPTPELTSKKPLDDTLALAPLFGPPLESAFDEQKTEVLLDQPEIWGSGQPMNPSTESPELARPFPTGTPPPLPPKTVPATPPRTGSPLTVATGNDQAATEAKIEKLPSISDLDSIFGPVLSPKSVAVNTEEKWVHFSDASPEHVTPELTPREQVVTPPAASDIPADSPAPAPPGPTGSAGPPGPPGPRHVPSPLNLEEVQKKVAEQTFIKDDYLETLSSPKECGLGQRATPPPPPPPTYRTVVSSPGPGSGSGTGTTSGASSPARPATPLVPCSTTPPPPPPRPPSRPKLPPGKPGVGDVSRPFSPPIHSSSPPPIAPLARAESTSSISSTNSLSAATTPTVENEQPSLVWFDRGKFYLTFEGSSRGPSPLTMGAQDTLPVAAAFTETVNAYFKGADPSKCIVKITGEMVLSFPAGITRHFANNPSPAALTFRVVNSSRLEHVLPNPQLLCCDNTQNDANTKEFWVNMPNLMTHLKKVSEQKPQATYYNVDMLKYQVSAQGIQSTPLNLAVNWRCEPASTDLRIDYKYNTDAMSTAVALNNVQFLVPIDGGVTKLQAVLPPAVANAEQQRILWAIPDISQKSENGGVGSLLARFQLSEGPSKPSPLVVQFTSEGSTLSGCDIELVGAGYRFSLIKKRFAAGKYLADN
notes: numbers count on: SGIP1α (NM_001285852.1); Made by site-directed mutagenesis; also called HA-SGIP1α mutant W771A/K781A; W771A/K781A mutant; source: HEK293T, transfected, in lysate
  relative band intensity (SGIP1α = 1): 0.2 relative to SGIP1α

From paper PMC6499997, “SGIP1α functions as a selective endocytic adaptor for the internalization of synaptotagmin 1 at synapses” (Molecular Brain, 2019)
